# Measurements taken from publication doi:10.1101/2022.03.11.483938v2.
# Experiments:
# [1] = substrate: Nc1ncnc2c1ncn2[C@H]1C[C@H](O)[C@@H](COP(=O)(O)O)O1; experiment: purified protein; conditions: constant hydrolysis rate
# [2] = substrate: Nc1ncnc2c1ncn2[C@@H]1O[C@H](COP(=O)(O)O)[C@@H](O)[C@H]1O; experiment: purified protein; conditions: hydrolysis rate gradually decreased under the selected conditions
protein,measurement,setting,value
SiE5NT (ecto-5'-nucleotidase) (Serendipita indica DSM 11827) (protein) KVDSLVSERALQKRFVDANGNYNVTIVHTNDVHAHLDQWRAGRGTDCTPGSECISGYARIKQKVSELRQSIQDPIFLNAGDEFQGTLFFTYYGGEKISYAINEVGYDVFTLGNHEFDRGQGELAAFLKNLTFPVVCANFKTNDTAMNALNIQPYTIIEKHQLGIIGVITPDTKGTSSGAGPGTEFSDPVQAVQKAVDELQAKNITRIIALTHIGYDKDIELAQKTKGVDLIVGGHSHTLLGNFTNAMGSYPTTAKNLDGEEVFIVTSYRWGEILGKMNIAFDASGKIVSYEGEPLRLTNTTQQDPKLQAEVNEWRQPFDAMAQVVVGTSSVVLDQSICQFSECTLGNVITDAMYEYRKNAGGNVDFALINSGGIRASISEGTVTQGDILTSFPFMNGVVDLTWTGKQLLDIFEGVVSKYSTLSHHATTSFIQVSKQVKFSWNPNNVNQTRLITLEIGGQQVDVNKNYTMVTLDFLASNGDYLWGTRTDFAALDTLDVVLASYFKAHSPVGASIEGRITNSTSTTQQLPGKGSSGGSGGASALIVSGLSAGMMLLAGMMLV,Km,[1],361.6 µM
same,kcat,[1],11.9 s⁻¹
same,Km,[2],15.9 µM
same,kcat,[2],1.1 s⁻¹
